Measurements reported in paper PMC6399465.

Biological target: biotinylated IRF3-Flag (UniProt Q14653)
Test: BLI; Forte-Bio Octet Red; 10 ug/ml biotinylated IRF3-Flag coupled to biosensors, immersed in ICP27-Flag (50, 200, 500 or 800 nM); proteins in PBS

Sequence of UniProt Q14653 (Q14653 whole entry): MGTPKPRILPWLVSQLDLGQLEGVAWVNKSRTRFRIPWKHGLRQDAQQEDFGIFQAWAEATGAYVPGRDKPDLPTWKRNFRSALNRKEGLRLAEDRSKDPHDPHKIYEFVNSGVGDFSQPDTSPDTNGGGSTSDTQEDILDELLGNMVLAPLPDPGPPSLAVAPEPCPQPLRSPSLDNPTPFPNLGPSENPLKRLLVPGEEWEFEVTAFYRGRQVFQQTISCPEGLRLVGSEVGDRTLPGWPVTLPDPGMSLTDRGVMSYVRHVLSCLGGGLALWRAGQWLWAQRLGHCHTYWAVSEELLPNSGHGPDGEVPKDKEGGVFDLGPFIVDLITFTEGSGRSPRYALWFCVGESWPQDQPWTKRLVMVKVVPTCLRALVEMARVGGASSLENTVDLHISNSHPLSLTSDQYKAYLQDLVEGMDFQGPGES

ICP27-Flag (purified from HEK 293F) (from UniProt P28276 1-512) (natural protein)
Kd: 20.3 nM
